Reference: US20260217835A1

Molecular target: IgG4 Fc fragment SEQ ID NO: 102, no modification (Homo sapiens (Human)) [IgG part: P01861]
Experiment: SEC peak area ratio; coexpression of full-length heavy chain, light chain and Fc fragment

Chain of IgG4 Fc fragment SEQ ID NO: 102, no modification (Homo sapiens (Human)) [IgG part: P01861] (P01861 other isoform, or with tags, fused parts or gaps limits assumed): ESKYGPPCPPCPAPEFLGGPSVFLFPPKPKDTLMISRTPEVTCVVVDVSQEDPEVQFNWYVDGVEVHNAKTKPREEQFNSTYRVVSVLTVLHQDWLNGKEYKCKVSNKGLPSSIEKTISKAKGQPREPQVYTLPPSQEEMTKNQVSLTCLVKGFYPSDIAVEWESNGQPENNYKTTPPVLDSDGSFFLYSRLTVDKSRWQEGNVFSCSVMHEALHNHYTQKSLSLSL

Heteromultimer (%): 4.6%
Substance: IgG4 full-length heavy chain SEQ ID NO: 110 with Q347E/S354Y/T366Y/Y407T, expressed with light chain SEQ ID NO: 61 (antibody)
